The Kd is the equilibrium constant for the complex coming apart.

In series [1] the target is T1, Hsp104N, isolated N domain of S. cerevisiae Hsp104 (first 165 residues) (S. cerevisiae, UniProt P31539 1-165).
T1 construct: Hsp104, S. cerevisiae, isolated N domain consisting of the first 165 residues, cloned into pProEX HTb; Tag cleavage by TEV is told in the general purification paragraph, not for Hsp104N by name; also called His6-Hsp104N; source: E. coli BL21-CodonPlus (DE3)-RIL, purified (Ni-NTA, anion exchange); not shown: His6, N-terminal, cleaved
The experiment in a line: BLI; Octet RED96; biotinylated C1 peptide immobilised on streptavidin biosensors at 0.5 µM; Hsp104N 4.3 to 137 µM in solution; 50 mM Tris-HCl pH 8.5, 20 mM ammonium citrate, 10% PEG4000, 0.1 mg/ml BSA; 25 °C; 10 min association, 10 min dissociation; equilibrium shifts from two independent measurements. As to conditions: both partners purified. (In general: Biolayer interferometry detects binding as a change in optical thickness at a sensor tip.)

Series [2] concerns the molecule itself. Description: crystal structure; Hsp104ND1 crystals grown at 4 °C, space group P6_(5)22, one molecule per asymmetric unit, nucleotide-free; N domain of one molecule contacts the C1 helix of the neighboring molecule; 2.8 Å.

Where no end group is shown, it is not given here. The star is where a group is joined. Biotin = O=C1N[C@H]2[C@H](CS[C@H]2CCCCC(=O)*)N1; Ahx = NCCCCCC(=O)O

B1: Biotinylated C1 peptide (Biotin-Ahx-GEVAEPSVRQTVAILRGLQ) (peptide)
peptide: {Biotin-Ahx}-GEVAEPSVRQTVAILRGLQ
notes: Immobilised on streptavidin biosensors through the biotin; source: synthetic peptide (AAPPTec LLC)
Take B1: in series [1], the Kd was 14 ± 1.7 µM.

B2: Hsp104ND1, N-terminal fragment of Saccharomyces cerevisiae Hsp104 (residues 1-360) (domain or fragment, S. cerevisiae, UniProt P31539 1-360, looked up)
chain: MNDQTQFTERALTILTLAQKLASDHQHPQLQPIHILAAFIETPEDGSVPYLQNLIEKGRYDYDLFKKVVNRNLVRIPQQQPAPAEITPSYALGKVLQDAAKIQKQQKDSFIAQDHILFALFNDSSIQQIFKEAQVDIEAIKQQALELRGNTRIDSRGADTNTPLEYLSKYAIDMTEQARQGKLDPVIGREEEIRSTIRVLARRIKSNPCLIGEPGIGKTAIIEGVAQRIIDDDVPTILQGAKLFSLDLAALTAGAKYKGDFEERFKGVLKEIEESKTLIVLFIDEIHMLMGNGKDDAANILKPALSRGQLKVIGATTNNEYRSIVEKDGAFERRFQKIEVAEPSVRQTVAILRGLQPKYE
notes: Hsp104, S. cerevisiae, residues 1-360: N domain and extended D1-large domain with the first helix of the D1-small domain (C1 helix, residues 343-351); residues 4 to 352 traced; The general purification text describes Ni-NTA and TEV cleavage of an N-terminal His6 tag; also called N-terminal fragment of yeast Hsp104
With B2, the binding result in series [2] is given as “binds”.

Source of the values: article PMC5593927, “Overlapping and Specific Functions of the Hsp104 N Domain Define Its Role in Protein Disaggregation” (Scientific Reports, 2017).
